Sequences and labels used below:
T1: Histidine-tagged human soluble CD27L (human, UniProt P32970 39-193)
T1 construct: also called Hu CD27L-his; soluble human CD27L-his; not shown: histidine tag
T1 sequence: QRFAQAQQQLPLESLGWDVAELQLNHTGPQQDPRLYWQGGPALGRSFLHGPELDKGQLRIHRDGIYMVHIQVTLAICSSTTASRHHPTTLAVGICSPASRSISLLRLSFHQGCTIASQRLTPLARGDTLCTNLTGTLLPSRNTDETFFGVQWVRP

T2: human CD27L on the surface of cells (human, UniProt P32970 1-193)
T2 construct: native on Raji and 786-0 cells, recombinant on 293 cells; also called CD70; TNFSF7
T2 sequence: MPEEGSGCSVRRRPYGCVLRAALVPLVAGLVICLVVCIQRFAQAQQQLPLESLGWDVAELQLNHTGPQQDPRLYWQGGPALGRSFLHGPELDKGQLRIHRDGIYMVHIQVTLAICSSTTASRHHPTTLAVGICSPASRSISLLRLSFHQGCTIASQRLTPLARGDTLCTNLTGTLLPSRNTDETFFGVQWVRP

T3: cynomolgus monkey CD27L (cynomolgus monkey, UniProt A0A2K5WTU9 39-190)
T3 construct: also called cynomolgus CD27L
T3 sequence: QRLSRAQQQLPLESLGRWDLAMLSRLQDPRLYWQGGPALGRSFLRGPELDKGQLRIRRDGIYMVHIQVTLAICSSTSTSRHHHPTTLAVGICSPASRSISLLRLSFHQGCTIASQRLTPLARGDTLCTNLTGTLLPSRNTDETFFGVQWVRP

T4: CD27L bound to Maxisorp plates (Homo sapiens (Human), UniProt P32970 39-193, limits assumed)
T4 sequence: T1 sequence

B1: Ab8 (antibody, human IgG1, kappa, V domains shown)
VH: QVQLVESGGGVVQPGRSLRLSCAASGFTFSSYGMHWVRQAPGKGLEWVAVIWYDGSDKYFADSVKGRFTISRDNSKNTLYLQMNSLRAEDTAVYYCARDGIAGARYVYFDYWGQGTLVTVSS
VL: DIQMTQSPSSLSASVGDRVTITCRASQGISNYLAWFQQKPGKAPKSLIYAASSLQGGVPSKFSGSGSGTDFTLTISSLQPEDFATYYCQQYYNYPFTFGPGTTVDIKR
notes: also called A8; unconjugated Ab8
B2: Ab1 (antibody, human IgG1, kappa, V domains shown)
VH: QMQLQESGPGLVKPSQTLSLTCTVSDGSIISGVYYWSWIRQHPGKGLEWIGYIYYSGSTSYNPSLKSRLTMSVDTSKNQFSLKLSSVTAADTAVYYCARSGYSYALFDYWGQGTLVTVSS
VL: DIQMTQSPSSLSASLGDRVTITCRASQSVDRYFNWYQQKPGKAPKVLIFAASSLQSGVPSRFGGSGSGTDFTLTISSLQPEDFATYYCQQSYSTPWTFGQGTKVEVKR
notes: Fully human IgG1 from XenoMouse hybridoma
B3: Ab2 (antibody, human IgG1, kappa, V domains shown)
VH: B2 VH with M2V, D26G, G27D, V33G, Y54F, S60D, L69V, M71I, Y109H
VL: DIQMTQSPSSLSASVGDRVTISCRASQFIGRYFNWYQQQPGKAPKVLIYAESSLQSGVPSRFSGSGSGTEFTLTISSLQPEDFARYYCQQSYSTPWTFGQGTKVEIKR
notes: as for B2
B4: Ab6 (antibody, human IgG1, lambda, V domains shown)
VH: QVQLVQSGAEVKKPGASVKVSCKASGYTFTSYGISWVRQAPGQGLEWMGWISAYNGYTHYAQKLQGRVTMTTDTSTSTAYMELRSLRSDDTAVYYCARDYGGNDYYGMDVWGQGTTVTVSS
VL: QSVLTQPPSASGTPGQRVTISCSGSSSNIGINYVYWYQQLPGTAPKLLIYRSDQRPSGVPDRFSGSKSGTSASLALSGLRSEDEADYYCAAWDDSLSGVVFGGGTKLTVLG
notes: as for B2
B5: Ab5 (antibody, human IgG1, kappa, V domains shown)
VH: QVQLVQSGAEVKKPGASVKVSCKASGYTFTSYDINWVRQATGQGLEWMGWMNPNSGNTGYAQKFQGRVTMTRNTSISTAYMELSSLRSEDTAVYYCARGYDFWSGYYYYYYGMDVWGQGTTVTVSS
VL: EIVLTQSPGTLSLSPGERATLSCRASQSVSSSYLAWYQQRPGQAPRLLIYGASSRATGIPDRFSGSGSGTDFTLTISSLEPEDFAVYYCLQSGSSVPLTFGGGTKVEIKR
notes: as for B2
B6: Ab4 (antibody, human IgG1, kappa, V domains shown)
VH: QVQLVESGGGVVQPGRSLRLSCAASGFTFSNYGIHWVRQAPGKGLEWVAVIWYDGSNKYYADSVKGRFTISRDNSKNTLYLQMNSLRAEDTAVYYCARDGGYSGYDSGFDYWGQGTLVTVSS
VL: DIVMTQSPLSLPVTPGEPASISCRSSQSLLNSNGYNYLDWYLQKPGQSPQFLIYLGSYRASGVPDRFSGSGSGTDFTLRISRVEAEDVGVYYCIQTLQTPFTFGPGTKVDIKR
notes: Fully human IgG1; also called A4; unconjugated parental Ab4
B7: Ab7 (antibody, human IgG1, lambda, V domains shown)
VH: QVQLVESGGGVVQPGRSLRLSCAASGFTFSTYGMHWVRQAPGKGLEWVAVIWYDGSNKYYGDSVKGRFTISRDNSKNTLYLQMNSLRAEDTAVYYCARDNSHYYYGMDVWGQGTTVTVSS
VL: QSVLTQPPSVSGAPGQRVTISCTGSSSNIGAGYDVNWYQQFPGTAPKLLIYVNNNRPSGVPDRFSGSTSGTSASLAITGLQAEDEADYYCQSYDTSLSASVFGGGTRLTVLG
notes: as for B2
B8: Ab3 (antibody, IgG1, V domains shown)
VH: EVQLLESGGGLVQPGGSLRLSCAASGFTFSSYAMSWVRQAPGKGLEWVSVISDSGGTTDYADSVKGRFTISRDNSKNTLYLQMNSLRAEDTAVYYCARHDYSNRYYFDYWGQGTLVTVSS
VL: EIVLTQSPGTLSLSPGERATLSCRASQSFSSNYLAWYQQKPGQAPRLFIYGASSRATGIPDRFSGSGSGTDFTLTISRLEPEDFAVYFCQQYGISPCSFGQGTKLEIK
notes: Tested as hybridoma supernatant
B9: Ab8-MCC-DM1 (antibody, human IgG1, kappa, V domains shown)
VH: B1 VH
VL: B1 VL
notes: also called Ab8 antibody drug conjugate; conjugated Ab8
B10: Ab4-MCC-DM1 (antibody, human IgG1, kappa, V domains shown)
VH: B6 VH
VL: B6 VL
modifications: DM1 linked through MCC (SMCC) to lysine residues; 4.5-5.0 DM1 molecules per antibody on average, sites not given
notes: also called Ab4 antibody drug conjugate; conjugated Ab4
B11: Ab4 variant Q95N-T96S + G33S-I34L (antibody, V domains shown)
VH: B6 VH with G33S, I34L
VL: DIVMTQSPLSLPVTPGEPASISCRSSQSLLNSNGYNYLDWYLQKPGQSPQFLIYLGSYRASGVPDRFSGSGSGTDFTLRISRVEAEDVGVYYCINSLQTPFTFGPGTKVDIK
notes: Rest as Ab4 (IgG1)
B12: Ab4 variant L55I-Y58F + G33S-I34L (antibody, V domains shown)
VH: B6 VH with G33S, I34L
VL: B11 VL with L55I, Y58F, N95Q, S96T
notes: Rest as Ab4 (IgG1)
B13: Ab4 variant Parent LC + S103G-G104S (antibody, V domains shown)
VH: B6 VH with S103G, G104S
VL: B11 VL with N95Q, S96T
notes: Rest as Ab4 (IgG1)
B14: Ab4 variant Q95N-T96S + S103G-G104S (antibody, V domains shown)
VH: B6 VH with S103G, G104S
VL: B11 VL
notes: Rest as Ab4 (IgG1)
B15: Ab4 variant Parent LC + G33S-I34L (antibody, V domains shown)
VH: B6 VH with G33S, I34L
VL: B11 VL with N95Q, S96T
notes: Rest as Ab4 (IgG1)
B16: Ab4 variant R24K-S26G + G33S-I34L (antibody, V domains shown)
VH: B6 VH with G33S, I34L
VL: B11 VL with R24K, S26G, N95Q, S96T
notes: Rest as Ab4 (IgG1)

Substitutions are numbered along the chain they refer to. Names and notes keep the numbering of the source.

The first test has as its target T1, Histidine-tagged human soluble CD27L. Nature of the test: BIACORE 3000, antibody captured by goat anti-human IgG on a CM5 chip, Hu CD27L-his as analyte (column 'Affinity Hu Biacore KD nM').
Description: Affinity for recombinant soluble human CD27L was determined using a CM5 chip on a BIACORE 3000. Goat anti-human IgG antibody was used to capture the test antibody. Binding and dissociation of Histidine-tagged human soluble CD27L was measured to determine Kₐ, Kₐ, and KD.
B1 came in with a Kd of 10.8 nM.
The same measure, in the same setting: then B2, with 0.62 nM.
With B3, the Kd worked out at 0.59 nM.
B4: the affinity, expressed as Kd, was 6.06 nM.
For B5, the Kd worked out at 10.4 nM.
The same measure, in the same setting: then B6, with 3.05 nM.
On to B7, for which binding was characterised by a dissociation constant (Kd) of 0.71 nM.
Same read-out and setting: then B8, with 4.35 nM.

The next test has as its target T2, human CD27L on the surface of cells. Nature of the test: flow cytometry on 786-0 cells, reference Ab8.
On to B9, for which the “fold change of binding EC50 against Ab8” value was determined as 4 fold.

A further test addresses T3, cynomolgus monkey CD27L. Nature of the test: binding to cynomolgus CD27L (column 'Cyno Avidity EC50 nM'); method not stated for the figure.
B1 returned an EC50 of 0.34 nM.
Take B4: the EC50 came to 0.87 nM.
B5 yielded an EC50 of 1.4 nM.
On the same count and under the same terms, the same measure for B6: 0.48 nM.
Molecule B7 yielded an EC50 of 0.43 nM.

The next test deals with T2, human CD27L on the surface of cells. Nature of the test: cell-based or functional assay.
For B10, the “ADCP, 786-0 EC50 (pM)” value came to 0.087 pM and the “ADCP, Raji EC50 (pM)” value came out at 1.42 pM.
As for B6, the “ADCP, 786-0 EC50 (pM)” value was determined as 0.008 pM and the “ADCP, Raji EC50 (pM)” value is 0.008 pM.

For the next test the target is unchanged. Nature of the test: flow cytometry (FACS) on 786-0 cells.
Molecule B9 displayed a concentration for a half-maximal effect (EC50) of 0.08 nM.
Take B1: the EC50 is 0.02 nM.
In turn, B10 returned an EC50 of 0.1 nM.
For B6, the EC50 came to 0.1 nM.

A further test has the same target. Nature of the test: cell-based or functional assay. This is another data set of the same source.
With B9, the “786-0-IC50, Antibody Conc. (nM); cell growth inhibition, CellTiter-Glo, 4 days” value came to 0.11 nM and the “786-0-IC50, Drug Conc. (nM); cell growth inhibition, CellTiter-Glo, 4 days” value was 0.54 nM.
Regarding B10, the “786-0-IC50, Antibody Conc. (nM); cell growth inhibition, CellTiter-Glo, 4 days” value was 0.07 nM and the “786-0-IC50, Drug Conc. (nM); cell growth inhibition, CellTiter-Glo, 4 days” value is 0.34 nM.

For the next test the target is unchanged. Nature of the test: Gyros, native human CD27L on Raji cells.
In turn, B9 had a Kd of 0.077 nM.
Still for that read-out and setting: the same measure for B1: 0.078 nM; for B10: 0.023 nM; for B6: 0.014 nM.

A further test has the same target. Nature of the test: cell-based or functional assay. The source holds these as a separate data set.
With B10, the “ADCC against Raji cells, EC50 (calcein release, NK effectors)” value was 6 ng/mL.
Still for that read-out and setting: the same measure for B6: 10 ng/mL.

Another test concerns the target T4, CD27L bound to Maxisorp plates. Nature of the test: ELISA on plate-bound CD27L; abolished = no curve could be generated or max signal less than 5%.
Description: CD27L was bound to Maxisorp plates at room temperature for >2 hours, shaking with lug/mL in 100 uL. The plates were then blocked with 250 uL 10% Non-fat dry milk in PBS+0.05% Tween 20 for 2 hours. After a 4×300 uL PBS+0.05% Tween20 (PBST) wash the modified Ab and purified parental control titrations ranging from 0.045 to 100 ng/mL were applied to the plates and incubated for 1 hour. A horseradish peroxidase conjugated αhuFc detection antibody (Jackson) diluted 1:7000 was applied to the plates after another PBST wash, and incubated for 1 hour. A final wash was performed and TMB substrate was incubated for 10 minutes and stopped with phosphoric acid. An OD reading at 450 nm was taken and plotted vs. concentration. These curves were then analyzed with a 3 parameter non linear curve fit and the EC₅₀ and Max calculated signal were compared to the purified control. Binding was determined to be similar to parental if the EC₅₀ was within 2 fold and the Max signal was greater than 50%. The binding was reduced if the EC₅₀ increased greater than 2 fold and/or the max signal was less than 50%. The binding was abolished if no curve could be generated or the max signal was less than 5%.
As to B11, the binding result is reported as “no binding”.
Same read-out and setting: then B12, with “no binding”.
Take B13: the binding result is reported as “no binding”.
B14: the binding result is recorded as “no binding”.
For B15, the binding result is on record as “no binding”.
On to B16, for which the binding result was “no binding”.

A further test deals with T2, human CD27L on the surface of cells. Nature of the test: binding to cells with native human CD27L (column 'Native cell Avidity EC50 nM'); cell line and method not stated for the figure.
For the molecule B1, a half-maximal response (EC50) required 0.09 nM.
On the same count and under the same terms, the same measure for B2: 0.32 nM; for B3: 0.24 nM.
In turn, B4 registered an EC50 of 0.87 nM.
B5 yielded an EC50 of 0.66 nM.
In turn, B6 registered an EC50 of 0.25 nM.
Turning to B7, the EC50 stood at 0.18 nM.
In turn, B8 registered an EC50 of 4.18 nM.

The values are drawn from patent US20130078237A1 (Amgen, published 2013).
